Key:
GroEL chaperonin [1] = molecular target: T1, GroEL chaperonin (Escherichia coli, UniProt P0A6F5 1-548); assay: FRET or BRET; streptavidin trap: denatured biotin- and fluorescein-labeled substrate diluted into equimolar GroEL, then streptavidin-aequorin and free biotin added; BRET (I520/I470) from aequorin to fluorescein reports substrate free in bulk solution; with or without 10 mM Mg-ATP and two-fold molar excess of GroES; conditions: both partners purified
T1 construct: GroEL (hsp60) chaperonin of Escherichia coli, expressed from the cloned groE operon; 14 identical subunits of 57 kDa in two heptameric rings; no tag is mentioned; also called hsp60; GroEL14; source: E. coli HB101, multicopy plasmid pGroE4 (groE operon of E. coli in pACYC184), purified; copies: 14
T1 sequence (P0A6F5 whole entry): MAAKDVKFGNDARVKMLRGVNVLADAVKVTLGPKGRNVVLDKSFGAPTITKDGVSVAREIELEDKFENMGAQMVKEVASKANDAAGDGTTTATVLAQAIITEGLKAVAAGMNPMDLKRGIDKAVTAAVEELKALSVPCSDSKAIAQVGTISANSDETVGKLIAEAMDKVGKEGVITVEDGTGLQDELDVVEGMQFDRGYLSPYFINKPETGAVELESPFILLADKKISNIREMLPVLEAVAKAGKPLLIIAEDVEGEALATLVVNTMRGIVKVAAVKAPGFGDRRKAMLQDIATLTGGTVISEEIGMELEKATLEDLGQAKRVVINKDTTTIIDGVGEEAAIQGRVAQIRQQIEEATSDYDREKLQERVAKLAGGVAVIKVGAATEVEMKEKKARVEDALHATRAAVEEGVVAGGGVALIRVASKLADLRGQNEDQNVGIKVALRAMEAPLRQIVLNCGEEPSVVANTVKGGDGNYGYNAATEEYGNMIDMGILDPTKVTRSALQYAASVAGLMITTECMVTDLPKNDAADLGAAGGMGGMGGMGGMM

GroEL chaperonin [2] = molecular target: T1, GroEL chaperonin; assay: native gel or EMSA; non-denaturing electrophoresis of GroEL with equimolar fluorescein-labeled denatured proteins in the presence of DTT and Mg-ADP, before and after 10 min incubation with a two-fold molar excess of GroES; Coomassie staining and fluorescence; conditions: both partners purified

B1: biotin- and fluorescein-labeled pig mitochondrial malate dehydrogenase, early refolding intermediate (natural protein, UniProt P00346 25-338, looked up)
chain: AKVAVLGASGGIGQPLSLLLKNSPLVSRLTLYDIAHTPGVAADLSHIETRATVKGYLGPEQLPDCLKGCDVVVIPAGVPRKPGMTRDDLFNTNATIVATLTAACAQHCPDAMICIISNPVNSTIPITAEVFKKHGVYNPNKIFGVTTLDIVRANAFVAELKGLDPARVSVPVIGGHAGKTIIPLISQCTPKVDFPQDQLSTLTGRIQEAGTEVVKAKAGAGSATLSMAYAGARFVFSLVDAMNGKEGVVECSFVKSQETDCPYFSTPLLLGKKGIEKNLGIGKISPFEEKMIAEAIPELKASIKKGEEFVKNMK
modifications: fluorescein label (5(6)-FAM, SE); biotin (biotin succinimide ester)
notes: pig mitochondrial malate dehydrogenase; also called BFM; MDH; source: bought: Sigma or Serva, additionally purified by ion-exchange and size-exclusion chromatography
- binding result (GroEL chaperonin [1]): binds

B2: GroES co-chaperonin (natural protein, Escherichia coli, UniProt P0A6F9 1-97, looked up)
chain: MNIRPLHDRVIVKRKEVETKSAGGIVLTGSAAAKSTRGEVLAVGNGRILENGEVKPLDVKVGDIVIFNDGYGVKSEKIDNEEVLIMSESDILAIVEA
notes: GroES (hsp10) co-chaperonin of Escherichia coli, expressed from the cloned groE operon; 7 identical subunits of ~10 kDa; no tag is mentioned; also called hsp10; GroES7; source: E. coli HB101, multicopy plasmid pGroE4 (groE operon of E. coli in pACYC184), purified
- binding result (GroEL chaperonin [2]): binds

Reference: article PMC7022901, “Back to GroEL-Assisted Protein Folding: GroES Binding-Induced Displacement of Denatured Proteins from GroEL to Bulk Solution” (Biomolecules, 2020)
